# Article PMC8346283
# Target: AmHv1, Hv1-type proton channel of Acropora millepora, tagged with fluorescent proteins (Acropora millepora)
# Test: FRET or BRET; spectral FRET (sensitized emission of the acceptor) in HEK293 cells co-expressing mCerulean-AmHv1 (donor) and mCitrine-AmHv1 (acceptor); apparent FRET efficiency against Id/Ia from 134 cells, fitted to a model of random assembly into a dimer
substance,measurement,value
"AmHv1, Hv1-type proton channel of Acropora millepora, tagged with fluorescent proteins (natural protein)",stoichiometry N,2
